{"source": "patent US20200239597A1", "about": "“AN ANTI-APOPTOTIC FUNCTION OF PKM2 AND INTRACELLULARLY EXPRESSED SCFV ANTIBODIES” (La Jolla Institute for Allergy and Immunology, priority 2017, published 2020)", "key": {"[1]": {"test_system": "293T cells", "assay": "Rescue of 293T cells from BimS-induced apoptosis (cell viability)", "format": "cell-based, human", "method": "Human BimS cDNA was subcloned into a pShooter™ mammalian expression vector (pCMV/myc/cyto; Invitrogen), to allow the expression of BimS driven by a CMV promoter. […] 293T cells were then infected with the intrabody library and then transfected with 4 μg/ml BimS plasmid, using 10 l of Lipofectamine® 2000 transfection reagent (Thermo Fisher). After 24 h post-infection, the culture medium was replaced with fresh MEMc medium supplemented with 10% FBS and penicillin/streptomycin (Gibco-Invitrogen).\n(§1) Cell viability was measured with a Countess™ Automated Cell Counter (Invitrogen) using trypan blue. For the clonogenic survival assay, 293T or MEFs cells were seeded in 6-well plates at 1×10^5 cells/well in a 2-ml volume, transfected with BimS cDNA and incubated for 24 h. Afterwards, the medium was replaced and the cells cultured for 3-4 days. Thereafter, the plates were rinsed with PBS and fixed and stained with a solution containing crystal violet (0.5% w/v) and glutaraldehyde (6% v/v) as described (Franken et al., 2006)."}, "[2]": {"test_system": "U2OS cells", "assay": "Clonogenic rescue from BimS-induced death, U2OS", "format": "cell-based"}, "[3]": {"test_system": "MDA-MB231", "assay": "Clonogenic rescue from BimS-induced death, MDA-MB231", "format": "cell-based", "details": "parental MDA-MB231", "method": "Control or IB5-expressing cells were transfected with BimS cDNA. The plates were fixed and stained with crystal violet after 12 days and the total areas of colonies were measured. Mean, SD and P values were calculated from 3 individual plates."}, "[4]": {"test_system": "MEFs", "assay": "BimS-resistant clonogenic survival in MEFs", "format": "cell-based, mouse", "method": "The plates were fixed and stained with crystal violet after 1 week and the total area of colonies were counted as above. The SD and P value was calculated from 6 individual plates.\nWT, Mfn1- or Mfn2-deficient MEFs were infected or not with IB5 lentivirus, then 1×10^5 cells were plated and transfected with BimS expression plasmid. The plates were fixed and stained with crystal violet after 1 week and the total areas of colonies were measured as above. Mean, SD and P values were calculated from 5 individual plates.\nas §1"}, "[5]": {"test_system": "HCT116 and U2OS cells", "assay": "Clonogenic survival with etoposide or staurosporine", "format": "cell-based", "details": "150 nM etoposide", "method": "5×10^5 HCT116 and U2OS cells were plated and transfected with BimS expression plasmid including 150 nM etoposide or 1 μM Staurosporine. The plates were fixed and stained with crystal violet after 5 days and the total areas of colonies were measured. Mean, SD and P values were calculated from 3 individual plates."}, "[6]": {"target": "T1, pyruvate kinase M2 (PKM2) (Homo sapiens, UniProt P14618)", "T1 construct": "some intrabodies precipitated specific cellular proteins; endogenous in cells; host or cells: HEK293T (293T)", "T1 sequence (P14618 whole entry)": "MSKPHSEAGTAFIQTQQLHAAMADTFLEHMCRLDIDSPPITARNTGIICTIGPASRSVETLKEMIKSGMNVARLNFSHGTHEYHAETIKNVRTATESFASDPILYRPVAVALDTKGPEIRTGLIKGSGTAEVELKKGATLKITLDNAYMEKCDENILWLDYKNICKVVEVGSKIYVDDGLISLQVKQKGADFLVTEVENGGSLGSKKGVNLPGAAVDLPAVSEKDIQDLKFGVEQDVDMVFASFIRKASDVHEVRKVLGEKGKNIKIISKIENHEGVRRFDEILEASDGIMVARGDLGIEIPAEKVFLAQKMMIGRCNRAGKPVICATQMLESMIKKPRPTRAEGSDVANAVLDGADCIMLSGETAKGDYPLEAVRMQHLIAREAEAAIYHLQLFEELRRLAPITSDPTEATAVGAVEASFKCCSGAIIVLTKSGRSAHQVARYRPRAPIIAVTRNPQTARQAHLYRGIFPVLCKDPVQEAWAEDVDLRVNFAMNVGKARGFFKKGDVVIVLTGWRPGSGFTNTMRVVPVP", "assay": "Target protein immunoprecipitation (FLAG pull-down, mass spectrometry, immunoblot)", "format": "binding", "details": "Triton X-100 extracts of 293T cells, anti-FLAG beads", "method": "FIG. 1 C is a photograph of a non-limiting SDS-PAGE gel with silver stain from an immunoprecipitation assay using antibodies encoded by DNA sequences isolated from FIG. 1B. […] Intrabodies that rescued cells from BimS-induced death were chosen for pull-down analysis as described in Methods. Left panel: Triton™-X-100 (1%) cell extracts were incubated with anti-FLAG beads, then proteins eluted with 3×FLAG peptide and separated by SDS-PAGE with silver stain. Specific bands are marked with dots; some bands (e.g. at 37 and 70 kD) are nonspecific. […] The bands near 25 kD are the scFv polypeptides, whose expression levels varied.\nFlag-tagged intrabody was introduced along with a tandem Strep-tag by PCR into the same lentiviral vector used for selection. 293T cells infected with the intrabody lentivirus were incubated at 30° C. for 72 h as described above. After washing with cold PBS, 5×10^8 cells were lysed for 15 minutes on ice in lysis buffer (50 mM Tris HCl, pH 7.4, 150 mM NaCl, 1 mM EDTA, 1% Triton™ X-100). Cell lysates were clarified by centrifugation for 15 minutes at 4° C. at 16,000×g. The total protein content of the soluble fraction was quantified using the BCA assay. For pull-down experiments, 10 mg of protein lysate was incubated with 200 al of EZview™ Red anti-FLAG® M2 Affini-ty Gel (Sigma-Aldrich) for 2 h at 4° C. Beads were washed 3 times in wash buffer (50 mM Tris HCl, pH 7.4, 150 mM NaCl, 1 mM EDTA, 0.1% Triton X-100). Elution was performed under native conditions by competition with 3×FLAG peptide following the manufacturer's protocol. Eluates were used for the second step purification using Strep-Tactin Superflow Plus™ [Qiagen], following the manufacturer's instructions. The final two-step purified protein was used for SDS-PAGE analysis. Bands of interest were cut out from the gel and subjected to in-gel digestion with trypsin (Promega, Fitchburg, Wis., USA) followed by MALDI TOF/TOF mass spectrometry analysis (Biomolecular and Proteomics Mass Spectrometry Facility, University of California at San Diego)."}, "[7]": {"target": "T2, WT PKM2 (Homo sapiens, UniProt P14618)", "T2 construct": "His (N); made in house; host or cells: Escherichia coli BL21(DE3)", "T2 sequence (P14618 whole entry)": "as above", "assay": "Blue native gel electrophoresis of recombinant proteins, WT PKM2", "format": "binding", "method": "Left: A monovalent form of scFv 5, produced in E. coli, induced tetramer formation in WT PKM2 along with a bandshift whose magnitude was dependent on the input amount of scFv 5. […] Reaction volume was 20 μl.\nBecause glucose metabolism can influence cell survival (Fulda and Debatin, 2007; Moley and Mueckler, 2000; Munoz-Pinedo et al., 2012), The present inventors asked whether IB5 could rescue cells simply through stimulating PKM2's glycolytic activity. First, to analyze the antibody's interaction with PKM2, the present inventors produced monovalent scFv 5 and PIKM2 as recombinant proteins in E. coli and analyzed mixtures of these proteins, by blue native gel electrophoresis (FIG. 3A)."}, "[8]": {"target": "PKM1 (Homo sapiens, UniProt P14618)", "sequence (P14618 1-531 isoform P14618-2, species assumed)": "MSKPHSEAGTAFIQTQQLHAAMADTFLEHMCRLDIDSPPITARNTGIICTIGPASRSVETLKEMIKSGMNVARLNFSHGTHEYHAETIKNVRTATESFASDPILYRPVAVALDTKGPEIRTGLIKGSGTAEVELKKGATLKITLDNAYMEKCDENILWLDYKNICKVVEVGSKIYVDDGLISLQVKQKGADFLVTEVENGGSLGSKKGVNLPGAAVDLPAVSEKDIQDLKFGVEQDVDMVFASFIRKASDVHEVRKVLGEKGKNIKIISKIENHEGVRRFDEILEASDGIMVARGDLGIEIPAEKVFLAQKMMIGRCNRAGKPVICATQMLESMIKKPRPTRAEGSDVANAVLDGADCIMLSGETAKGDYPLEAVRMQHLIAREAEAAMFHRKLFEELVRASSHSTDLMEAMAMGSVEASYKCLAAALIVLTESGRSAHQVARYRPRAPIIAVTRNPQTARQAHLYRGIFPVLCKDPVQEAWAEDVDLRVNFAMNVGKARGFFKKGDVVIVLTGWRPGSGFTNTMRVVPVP", "assay": "Blue native gel electrophoresis of recombinant proteins, PKM1", "format": "binding"}}}
{"molecule": "IB5: intracellularly expressed single-chain antibody (scFv) specific for PKM2, SEQ ID NO: 2; also made as monovalent recombinant scFv in E. coli (protein, artificial intrabody clone 5, also made as monovalent recombinant scFv in E. coli) scFv: MAQVQLVETGPGLVKPSETLSLRCTVSGGSFDNYYWNWIRQPPGKGLEYIGYVFPSTGATNYNPSLGSRVTISLDTSKNQFSLTLTSVTTADTAIYYCVRSGHDLWTGSTWFDPWGQWTTVTVSSGGGGSGGGGSGGGGSEIVLTQSPGTLSLSPGERATLSCRASQSVSSSYLAWYQQKPGQAPRLLIYGASSRATGIPDRFSGSGSGTDFTLTISRLEPEDIAVYYCQQRSNWPRTFGQGTKVEIKRGLGGLASVDYKDDDDK", "values": [{"measurement": "percentage of 293T cells rescued from BimS-induced death", "setting": "[1]; single intrabody expressed from lentivirus, BimS cDNA transfection", "result": "15-20%"}, {"measurement": "survival effect when expressed with a weaker promoter", "setting": "[1]; weaker promoter, not shown", "result": "reduced"}, {"measurement": "protection from BimS-induced apoptosis (clonogenicity)", "setting": "[2]", "result": "substantially protected"}, {"measurement": "rescue from BimS-induced cell death", "setting": "[3]", "result": "failed to rescue"}, {"measurement": "rescue from BimS-induced clonogenic death", "setting": "[4]; Mfn1-deficient MEFs", "result": "failed to rescue"}, {"measurement": "rescue from BimS-induced death (clonogenic)", "setting": "[4]; Mfn2-null MEFs", "result": "rescued"}, {"measurement": "rescue from BimS-induced death (clonogenic)", "setting": "[4]; WT MEFs", "result": "rescued"}, {"measurement": "clonogenic survival", "setting": "[4]; early passage MEFs with PKM2 (K422R)", "result": "enhanced clonogenic survival"}, {"measurement": "clonogenic survival", "setting": "[4]; later-passage MEFs with PKM2 (K422R)", "result": "further enhanced"}, {"measurement": "clonogenic survival in cells treated with etoposide", "setting": "[5]", "result": "promoted clonogenic survival"}, {"measurement": "protein pulled down from cell extracts", "setting": "[6]", "result": "pulled down a 55-kD protein now identified as pyruvate kinase M2"}, {"measurement": "tetramer formation of WT PKM2", "setting": "[7]; blue native gel", "result": "strongly increased the tetrameric PIKMV2 species"}, {"measurement": "direct binding to PKM2", "setting": "[7]; in vitro experiments", "result": "bound directly to PKM2"}, {"measurement": "shift of electrophoretic mobility of recombinant PKM1", "setting": "[8]", "result": "failed to shift the electrophoretic mobility"}]}
